# Test results taken from PMC3197789.
# Legend:
# [1] = system: 7HC-STAT3beta, Src-phosphorylated (pY705); test: EMSA with unlabelled hSIE competition; conditions: not given in the material (Supporting Information not held)
# [2] = system: wt STAT3beta, Src-phosphorylated (pY705); test: EMSA with unlabelled hSIE competition; conditions: not given in the material (Supporting Information not held)
substance,measurement,setting,value
hSIE (high-affinity sis-inducible element) probe,Kd,[1],6.8 nM
same,Kd,[2],6.3 nM
